Measured values published in US20250376533A1 (FUTUREGEN BIOPHARMACEUTICAL BEIJING, published 2025).
Numbering of substitutions follows the chain as printed. Numbers in names are those of the source.

T1: rat CD40 antigen (ACROBiosystems) (rat, UniProt A6JXD6 20-193)
T1 construct: Bought antigen coated on ELISA plates; construct not described
T1 sequence: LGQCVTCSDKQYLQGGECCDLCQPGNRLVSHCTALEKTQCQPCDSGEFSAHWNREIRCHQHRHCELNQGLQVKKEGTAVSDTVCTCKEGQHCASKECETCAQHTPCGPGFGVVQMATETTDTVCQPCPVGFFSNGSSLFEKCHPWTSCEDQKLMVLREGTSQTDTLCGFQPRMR

B1: anti-PD-L1/CD40 bispecific antibody 1653 (bispecific antibody, human IgG2, kappa)
light: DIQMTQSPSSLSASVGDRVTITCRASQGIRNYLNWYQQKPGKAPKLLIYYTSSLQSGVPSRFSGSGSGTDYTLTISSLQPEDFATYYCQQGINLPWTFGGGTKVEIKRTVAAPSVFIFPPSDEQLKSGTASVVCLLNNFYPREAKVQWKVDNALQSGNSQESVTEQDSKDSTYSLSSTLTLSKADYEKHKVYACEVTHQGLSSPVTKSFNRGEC
heavy: EVQLVESGGGLVQPGGSLRLSCAASGFTFSDYYMSWVRQAPGKGLEWVGFIRNKANAYTTEYAASVKGRFTISRDNSKSTLYLQMNSLRAEDTAVYYCARYGGLKKGWYFDLWGQGTLVTVSSASTKGPSVFPLAPCSRSTSESTAALGCLVKDYFPEPVTVSWNSGALTSGVHTFPAVLQSSGLYSLSSVVTVPSSNFGTQTYTCNVDHKPSNTKVDKTVERKCCVECPPCPAPPVAGPSVFLFPPKPKDTLMISRTPEVTCVVVDVSHEDPEVQFNWYVDGVEVHNAKTKPREEQFNSTFRVVSVLTVVHQDWLNGKEYKCKVSNKGLPAPIEKTISKTKGQPREPQVYTLPPSREEMTKNQVSLTCLVKGFYPSDIAVEWESNGQPENNYKTTPPMLDSDGSFFLYSKLTVDKSRWQQGNVFSCSVMHEALHNHYTQKSLSLSPGGGGGSGGGGSGGGGSGEVQLVESGGGLVQPGGSLRLSCAASGFTFDYYTQCWFRQAPGKEREWVSCISSSEGSTYYADSVKGRFTISRDNSKNTVYLQMNSLKTEDTAVYYCAARKGGPLTIENFFDYWGQGTQVTVSS
notes: First polypeptide chain = anti-CD40 light chain; second polypeptide chain = anti-CD40 heavy chain with the 1541 VHH joined to its C-terminus by a G4S linker
B2: anti-PD-L1/CD40 bispecific antibody 1654 (bispecific antibody, human IgG2, kappa)
light: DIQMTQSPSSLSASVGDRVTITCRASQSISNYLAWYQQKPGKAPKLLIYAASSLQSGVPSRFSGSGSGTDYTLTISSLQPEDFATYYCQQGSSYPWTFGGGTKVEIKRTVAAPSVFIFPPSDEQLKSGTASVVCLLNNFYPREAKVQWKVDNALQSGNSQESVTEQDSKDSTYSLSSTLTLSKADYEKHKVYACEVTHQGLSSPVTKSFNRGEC
heavy: B1 heavy with D31N, S87R, K106V
notes: as for B1
B3: anti-PD-L1/CD40 bispecific antibody 1606 (bispecific antibody, human IgG2, kappa)
light: DIQMTQSPSSLSASVGDRVTITCRASQDIRNYLNWYQQKPGKAPKLLIYYTSRRDSGVPSRFSGSGSGTDYTLTISSLQPEDFATYFCQQGKTLPWTFGGGTKVEIKRTVAAPSVFIFPPSDEQLKSGTASVVCLLNNFYPREAKVQWKVDNALQSGNSQESVTEQDSKDSTYSLSSTLTLSKADYEKHKVYACEVTHQGLSSPVTKSFNRGEC
heavy: B1 heavy with A57G, S79N, K105R, K106Q, L112V
notes: as for B1
B4: anti-PD-L1/CD40 bispecific antibody 1605 (bispecific antibody, human IgG2, kappa)
light: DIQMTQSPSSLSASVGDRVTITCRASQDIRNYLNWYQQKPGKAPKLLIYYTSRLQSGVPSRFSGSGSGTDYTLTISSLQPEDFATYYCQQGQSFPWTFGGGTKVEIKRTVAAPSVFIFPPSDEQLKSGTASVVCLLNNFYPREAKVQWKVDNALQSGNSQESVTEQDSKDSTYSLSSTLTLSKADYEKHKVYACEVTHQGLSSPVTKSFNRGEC
heavy: B1 heavy with D31N, G49A, L104I, K105R, K106V
notes: as for B1
B5: anti-PD-L1/CD40 bispecific antibody 1609 (bispecific antibody, human IgG2, kappa)
light: B3 light with D28T, R30S, N31S, R53T, R54L, D55Q, F87Y, K92N, T93A, L94Y
heavy: B1 heavy with D31N, A57G, K106I
notes: as for B1
B6: anti-PD-L1/CD40 bispecific antibody 1652 (bispecific antibody, human IgG2, kappa)
light: B3 light
heavy: B1 heavy with S79N, K105R, K106Q, L112V
notes: as for B1
B7: anti-PD-L1/CD40 bispecific antibody 1608 (bispecific antibody, human IgG2, kappa)
light: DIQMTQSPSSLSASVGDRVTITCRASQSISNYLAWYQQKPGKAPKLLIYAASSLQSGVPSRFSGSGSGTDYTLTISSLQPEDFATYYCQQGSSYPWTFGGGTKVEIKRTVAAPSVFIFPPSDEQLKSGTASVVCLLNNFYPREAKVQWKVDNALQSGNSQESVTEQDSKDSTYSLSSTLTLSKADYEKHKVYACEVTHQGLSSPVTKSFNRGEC
heavy: B1 heavy with D31N, A57G, S87R, K106V
notes: as for B1
B8: anti-PD-L1/CD40 bispecific antibody 1607 (bispecific antibody, human IgG2, kappa)
light: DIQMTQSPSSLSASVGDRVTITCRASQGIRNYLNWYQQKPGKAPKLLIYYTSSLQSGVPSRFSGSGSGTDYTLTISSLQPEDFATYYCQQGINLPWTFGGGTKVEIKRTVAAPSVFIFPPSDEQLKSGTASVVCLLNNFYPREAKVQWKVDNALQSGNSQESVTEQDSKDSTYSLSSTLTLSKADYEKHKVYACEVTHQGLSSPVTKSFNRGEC
heavy: B1 heavy with A57G
notes: as for B1

Biological target: T2, CD40 on HEK-Blue CD40L cells (InvivoGen) (UniProt P25942 21-277, limits assumed)
T2 sequence (P25942 21-277 limits assumed): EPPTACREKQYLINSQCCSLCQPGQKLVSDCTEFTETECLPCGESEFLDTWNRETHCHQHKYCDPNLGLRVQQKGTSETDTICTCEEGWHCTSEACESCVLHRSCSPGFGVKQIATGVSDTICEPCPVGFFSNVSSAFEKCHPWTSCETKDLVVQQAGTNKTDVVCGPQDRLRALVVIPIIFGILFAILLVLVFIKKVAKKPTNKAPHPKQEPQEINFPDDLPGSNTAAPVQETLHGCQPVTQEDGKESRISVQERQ
Assay: cell-based or functional assay

| Binder | CD40 agonistic activity (A)/(B) Ratio, EC50 without over with CHO/PD-L1 | CD40 agonistic activity EC50 (nM) with CHO/PD-L1 (B), SEAP reporter [nM] | CD40 agonistic activity EC50 (nM) without CHO/PD-L1 (A), SEAP reporter [nM] |
| --- | --- | --- | --- |
| B1 | 2.2 | 0.018 | 0.039 |
| B2 | 23.2 | 0.027 | 0.633 |
| B3 | 3.7 | 0.017 | 0.061 |
| B4 | 3.2 | 0.024 | 0.075 |
| B5 | 28 | 0.02 | 0.556 |
| B6 | 4.1 | 0.022 | 0.092 |
| B7 | 20.2 | 0.02 | 0.396 |
| B8 | 2.4 | 0.012 | 0.029 |

Biological target: T2, CD40 on HEK-Blue CD40L cells (InvivoGen)
Assay: flow cytometry, competition with 10 nM Biotin-CD40L on HEK-Blue CD40L cells
Experimental: The blocking effect of bispecific antibodies on CD40/CD40L binding was tested using HEK-Blue CD40L cells that highly express CD40. The specific method is as follows: HEK-Blue CD40L cells were collected and resuspended in pre-cooled PBS containing 2% FBS at a density of 1E7 cells/mL, and then added to a 96-well plate at 50 μL per well, i.e., 5E5 cells/well. Biotin-CD40L (FutureGen Biopharmaceutical) and serially diluted bispecific antibody were then added at 50 μL per well, with a final concentration of Biotin-CD40L of 10 nM, and the plate was incubated at 4° C. for 1 hour. The wells were washed twice with pre-cooled PBS. Streptavidin-PE (BioLegend, Cat. No. 405203) diluted in pre-cooled PBS containing 2% FBS was added, and the plate was incubated at 4° C. for 30 minutes. The wells were washed twice with pre-cooled PBS. The cells were then resuspended in pre-cooled PBS containing 2% FBS and assayed by flow cytometry.

| Binder | IC50 [nM] |
| --- | --- |
| B1 | 0.807 |
| B2 | 7.7 |
| B3 | 0.78 |
| B4 | 1.09 |
| B5 | 3.16 |
| B6 | 0.852 |
| B7 | 4.54 |
| B8 | 0.703 |

Biological target: T3, human CD40 antigen (ACROBiosystems) (human, UniProt P25942 21-193)
T3 construct: Bought antigen coated on ELISA plates; construct not described
T3 sequence (P25942 21-193 limits assumed): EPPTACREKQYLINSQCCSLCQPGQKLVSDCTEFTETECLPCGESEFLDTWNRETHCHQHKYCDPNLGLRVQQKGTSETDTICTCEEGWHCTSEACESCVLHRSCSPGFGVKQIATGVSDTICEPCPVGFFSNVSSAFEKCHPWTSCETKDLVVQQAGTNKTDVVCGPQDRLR
Assay: bridging ELISA: coated human CD40, serially diluted bispecific antibody, detection with biotin-labeled human PD-L1 and streptavidin-HRP, OD450
Experimental: Antigen human CD40 (purchased from ACROBiosystems) was coated with 1 μg/mL carbonate buffer (pH=9.6) in an ELISA plate at 100 μL per well, followed by incubation at 4° C. overnight. The wells were washed 5 times with PBST. 300 μL/well of PBST containing 1% BSA was added to block the wells, and the plate was incubated at room temperature for 1 hour. The wells were washed 5 times with PBST. […] The wells were washed 5 times with PBST. Biotin-labeled human PD-L1 (FutureGen Biopharmaceutical) diluted with PBST containing 1% BSA was added at 100 μL per well, and the plate was incubated at room temperature for 1 hour. The wells were washed 5 times with PBST. Streptavidin-HRP (BioLegend, Cat. No. 405210) diluted with PBST containing 1% BSA was added at 100 μL per well, and the plate was incubated at room temperature for 30 minutes. Colorimetric substrate TMB was added at 100 μL per well and allowed to develop color at room temperature for 10 minutes, followed by the addition of 1 M sulfuric acid to terminate the reaction. The OD_[…] was read on a microplate reader to analyze the results, and the EC₅₀ was calculated using a 4-parameter fit binding curve.

| Binder | EC50 [nM] |
| --- | --- |
| B1 | 0.039 |
| B2 | 0.026 |
| B3 | 0.04 |
| B4 | 0.038 |
| B5 | 0.039 |
| B6 | 0.032 |
| B7 | 0.029 |
| B8 | 0.032 |

Biological target: T4, mouse CD40 antigen (ACROBiosystems) (mouse, UniProt P27512 24-193, limits assumed)
T4 construct: Bought antigen coated on ELISA plates; construct not described
T4 sequence (P27512 24-193 limits assumed): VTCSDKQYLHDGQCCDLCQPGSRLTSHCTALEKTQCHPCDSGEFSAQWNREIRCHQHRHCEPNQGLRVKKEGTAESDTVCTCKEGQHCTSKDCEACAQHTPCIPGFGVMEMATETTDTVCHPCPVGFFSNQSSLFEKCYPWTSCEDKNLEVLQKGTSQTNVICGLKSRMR
Assay: ELISA, coated antigen
Experimental: (§1) The binding ability of bispecific antibody to human PD-L1 and human CD40, as well as the species specificity, was detected using an enzyme-linked immunosorbent assay (ELISA). The specific method is as follows: human PD-L1, cynomolgus PD-L1, rat PD-L1, mouse PD-L1, human CD40, cynomolgus CD40, rat CD40, and mouse CD40 antigens (all purchased from ACROBiosystems) were coated with 1 μg/mL carbonate buffer (pH=9.6) in an ELISA plate at 100 μL per well, followed by incubation at 4° C. overnight. The wells were washed 5 times with PBST. 300 μL/well of PBST containing 1% BSA was added to block the wells, and the plate was incubated at room temperature for 1 hour. The wells were washed 5 times with PBST. […] The wells were washed 5 times with PBST. […] The wells were washed 5 times with PBST. Colorimetric substrate TMB was added at 100 μL per well and allowed to develop color at room temperature for 10 minutes, followed by the addition of 1 M sulfuric acid to terminate the reaction. The OD_{450 nm} was read on a microplate reader to analyze the results, and the EC₅₀ was calculated using a 4-parameter fit binding curve.
(§2) These bispecific antibodies are not able to bind to rat PD-L1 and CD40 or mouse PD-L1 and CD40.

| Binder | binding result |
| --- | --- |
| B1 | no binding |
| B2 | no binding |
| B3 | no binding |
| B4 | no binding |
| B5 | no binding |
| B6 | no binding |
| B7 | no binding |
| B8 | no binding |

Biological target: T5, rat PD-L1 antigen (ACROBiosystems) (rat, UniProt D4AE25 19-239)
T5 construct: Bought antigen coated on ELISA plates; construct not described
T5 sequence (D4AE25 entry or part of it limits assumed): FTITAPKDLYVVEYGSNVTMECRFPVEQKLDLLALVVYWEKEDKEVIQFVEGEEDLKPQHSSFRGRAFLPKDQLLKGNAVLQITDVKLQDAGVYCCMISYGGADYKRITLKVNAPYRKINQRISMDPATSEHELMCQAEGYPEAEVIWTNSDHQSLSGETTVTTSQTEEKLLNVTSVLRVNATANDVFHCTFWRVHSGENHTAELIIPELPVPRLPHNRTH
Assay: ELISA, coated antigen
Experimental: as §1, §2

| Binder | binding result |
| --- | --- |
| B1 | no binding |
| B2 | no binding |
| B3 | no binding |
| B4 | no binding |
| B5 | no binding |
| B6 | no binding |
| B7 | no binding |
| B8 | no binding |

Biological target: T1, rat CD40 antigen (ACROBiosystems)
Assay: ELISA, coated antigen
Experimental: as §1, §2

| Binder | binding result |
| --- | --- |
| B1 | no binding |
| B2 | no binding |
| B3 | no binding |
| B4 | no binding |
| B5 | no binding |
| B6 | no binding |
| B7 | no binding |
| B8 | no binding |

Biological target: T6, human PD-L1 antigen (ACROBiosystems) (human, UniProt Q9NZQ7 19-238)
T6 construct: Bought antigen coated on ELISA plates
T6 sequence (Q9NZQ7 19-238 limits assumed): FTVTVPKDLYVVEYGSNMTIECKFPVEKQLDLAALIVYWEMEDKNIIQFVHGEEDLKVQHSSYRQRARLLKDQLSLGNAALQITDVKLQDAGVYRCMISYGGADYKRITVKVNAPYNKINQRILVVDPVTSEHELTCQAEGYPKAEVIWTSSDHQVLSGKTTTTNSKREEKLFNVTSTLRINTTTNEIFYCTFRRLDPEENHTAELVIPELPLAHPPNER
Assay: ELISA, coated antigen
Experimental: as §1, §2

| Binder | EC50 [nM] |
| --- | --- |
| B1 | 0.039 |
| B2 | 0.031 |
| B3 | 0.039 |
| B4 | 0.05 |
| B5 | 0.034 |
| B6 | 0.035 |
| B7 | 0.038 |
| B8 | 0.036 |

Biological target: T7, cynomolgus CD40 antigen (ACROBiosystems) (cynomolgus, UniProt G7PG38 21-193)
T7 construct: Bought antigen coated on ELISA plates; construct not described
Assay: ELISA, coated antigen
Experimental: as §1, §2

| Binder | EC50 [nM] |
| --- | --- |
| B1 | 0.018 |
| B2 | 0.013 |
| B3 | 0.02 |
| B4 | 0.02 |
| B5 | 0.019 |
| B6 | 0.017 |
| B7 | 0.02 |
| B8 | 0.016 |

Biological target: T3, human CD40 antigen (ACROBiosystems)
Assay: ELISA, coated antigen
Experimental: as §1, §2

| Binder | EC50 [nM] |
| --- | --- |
| B1 | 0.02 |
| B2 | 0.013 |
| B3 | 0.024 |
| B4 | 0.024 |
| B5 | 0.021 |
| B6 | 0.021 |
| B7 | 0.022 |
| B8 | 0.02 |

Biological target: T8, mouse PD-L1 antigen (ACROBiosystems) (mouse, UniProt Q9EP73 19-239)
T8 construct: Bought antigen coated on ELISA plates; construct not described
T8 sequence (Q9EP73 19-239 limits assumed): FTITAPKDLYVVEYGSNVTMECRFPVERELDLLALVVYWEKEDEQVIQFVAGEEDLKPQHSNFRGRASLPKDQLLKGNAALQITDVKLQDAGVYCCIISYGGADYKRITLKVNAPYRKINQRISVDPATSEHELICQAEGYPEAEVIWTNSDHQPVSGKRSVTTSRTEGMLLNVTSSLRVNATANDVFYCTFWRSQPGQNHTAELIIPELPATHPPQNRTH
Assay: ELISA, coated antigen
Experimental: as §1, §2

| Binder | binding result |
| --- | --- |
| B1 | no binding |
| B2 | no binding |
| B3 | no binding |
| B4 | no binding |
| B5 | no binding |
| B6 | no binding |
| B7 | no binding |
| B8 | no binding |

Biological target: T9, cynomolgus PD-L1 antigen (ACROBiosystems) (cynomolgus, UniProt G7PSE7 19-238)
T9 construct: Bought antigen coated on ELISA plates; construct not described
T9 sequence (G7PSE7 entry or part of it): as the sequence (Q9NZQ7 19-238 limits assumed) above, with A33T, A34S, S62N, R68Q, Q82R, F173L, T185A, T192I, H215L counted along it
Assay: ELISA, coated antigen
Experimental: as §1, §2

| Binder | EC50 [nM] |
| --- | --- |
| B1 | 0.021 |
| B2 | 0.045 |
| B3 | 0.022 |
| B4 | 0.025 |
| B5 | 0.016 |
| B6 | 0.018 |
| B7 | 0.019 |
| B8 | 0.019 |
